Measurements published in paper PMC3749969.

Experiments:
[1] = target: Merkel cell polyomavirus major capsid protein VP1 (native virions, isolate R17b) (Merkel cell polyomavirus (MCV), isolate R17b); assay: co-sedimentation; purified native virions and high-VP2 pseudovirions; SDS-PAGE, SYPRO Ruby stain, densitometry against BSA standards; apparent ratio
[2] = target: Merkel cell polyomavirus major capsid protein VP1 (pseudovirions, codon-modified gene) (Merkel cell polyomavirus (MCV)); assay: as above

Merkel cell polyomavirus minor capsid protein VP2 (native virions, isolate R17b) (natural protein)
stoichiometry N (VP2 per 5 VP1) [1]: 2

Merkel cell polyomavirus minor capsid protein VP2 (pseudovirions, codon-modified gene) (natural protein)
stoichiometry N (VP2 per 5 VP1) [2]: 1.4
